Laboratory results: patent publication US20220153864A1 (Pieris, published 2022)
One block for each binder: values may come before it.

What was measured:
[1] = molecular target: T1, recombinant cynomolgus GPC3 (cyGPC3) (R&D Systems) (cynomolgus, UniProt A0A2K5VK50 24-558); test: ELISA, cyGPC3 coated
Method: (§1) Recombinant huGPC3 (R&D Systems) at the concentration of 1 μg/mL in PBS was coated overnight on microtiter plates at 4° C. After five washes with 100 μL PBS-0.05% T (PBS supplemented with 0.05% (v/v) Tween 20), the plates were blocked with 2% BSA (w/v) in PBS-0.1% T (PBS-0.1% T-2% BSA) for 1 h at room temperature. After washing with 100 μL PBS-0.05% T (PBS supplemented with 0.05% (v/v) Tween 20) five times, exemplary fusion proteins (SEQ ID NOs: 87 and […] and CD137Ac1-Fusion 1 to 7) or the GPC3 antibody as include in the fusion proteins (SEQ ID NOs: 81 and 82) at different concentrations were added to the wells and incubated for 1 h at room temperature, followed by another wash step. Bound molecules under study were detected by incubation with 1:5000 diluted anti-human IgG Fc-HRP (Jackson Laboratory) in PBS-0.1% T-2% BSA. After an additional wash step, fluorogenic HRP substrate (QuantaBlu, Thermo) was added to each well and the fluorescence intensity was detected using a fluorescence microplate reader.
The same ELISA setup was also employed to determine the binding potency of fusion proteins to cynomolgus GPC3 and huCD137, where recombinant cyGPC3 (R&D Systems) or huCD137-His (recombinant human CD137 with C-terminal polyhistidine tag, R&D Systems) was instead coated on a microtiter plate. The testing agents were similarly titrated and bound agents were detected via anti-NGAL-HRP. […]

[2] = molecular target: T2, human GPC3 expressed on cells (SK-Hep1::huGPC3; HepG2, Hep3B and MKN-45 tumor cells) (human, UniProt P51654 25-554); test: flow cytometry on HepG2 tumor cells (GPC3 high)
T2 construct: whole, on cells; also called GPC3-positive tumor cells; human GPC3-expressing cells
T2 sequence (P51654 25-554 limits assumed): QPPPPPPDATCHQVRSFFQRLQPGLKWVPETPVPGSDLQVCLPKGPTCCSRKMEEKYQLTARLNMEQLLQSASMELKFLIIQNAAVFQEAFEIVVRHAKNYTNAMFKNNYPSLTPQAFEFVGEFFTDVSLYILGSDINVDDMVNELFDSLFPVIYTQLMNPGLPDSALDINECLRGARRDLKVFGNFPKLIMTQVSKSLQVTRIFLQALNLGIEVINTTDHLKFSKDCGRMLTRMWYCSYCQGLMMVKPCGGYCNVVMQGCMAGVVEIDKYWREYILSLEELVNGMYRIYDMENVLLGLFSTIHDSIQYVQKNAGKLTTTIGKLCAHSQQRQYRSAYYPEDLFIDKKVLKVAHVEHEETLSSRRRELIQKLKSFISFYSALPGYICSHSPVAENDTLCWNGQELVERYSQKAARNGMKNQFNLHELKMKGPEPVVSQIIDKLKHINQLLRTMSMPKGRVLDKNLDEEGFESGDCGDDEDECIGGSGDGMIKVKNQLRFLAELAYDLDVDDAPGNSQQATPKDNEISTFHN
Method: (§2) 5×10⁴ cells per well were incubated for 1 h in ice-cold PBS containing 5% fetal calf serum (PBS-FCS). A dilution series of the testing molecule were added to the cells and incubated for 1 h on ice. Cells were washed twice with PBS and then incubated with a goat anti-hlgG Alexa647-labeled antibody or goat anti-hlgG Alexa488-labeled antibody for 30 min on ice. Cells were subsequently washed and analyzed using iQue Flow cytometer (Intellicyte Screener). Mean geometric fluorescent signals were plotted and fitted with Graphpad software. The geometric means of the fluorescence intensity were used to calculate EC₅₀ values using a four-parameter logistic regression with bottom fixed to background.
(§3) For flow cytometric analysis, tumor cell lines with different GPC3 expression levels (high to moderate expression: HepG2>Hep3B>MKN-45) and GPC3 negative cell line NCI-N87 were incubated with an exemplary fusion protein SEQ ID NOs: 87 and 82, the GPC3 antibody or the CD137 specific lipocalin mutein (Fc fusion) as included in the fusion protein (SEQ ID NOs: 81 and 82 and SEQ ID NO: 98, respectively), a reference CD137 antibody SEQ ID NOs: 26 and 27, or an isotype control (SEQ ID NO: 24 and 25), and detected using a fluorescently labeled anti-human IgG antibody as described in Example 6.

[3] = molecular target: T2, human GPC3 expressed on cells …; test: flow cytometry on Hep3B tumor cells (GPC3 positive)
Method: as §2, §3

[4] = molecular target: T2, human GPC3 expressed on cells …; test: flow cytometry on MKN-45 tumor cells (GPC3 moderate)
Method: as §2, §3

[5] = molecular target: T3, recombinant human GPC3 (huGPC3) (R&D Systems) (human, UniProt P51654 25-559); test: ELISA, huGPC3 coated, detection anti-human IgG Fc-HRP
T3 construct: also called biotinylated huGPC3
T3 sequence (P51654 25-559 limits assumed): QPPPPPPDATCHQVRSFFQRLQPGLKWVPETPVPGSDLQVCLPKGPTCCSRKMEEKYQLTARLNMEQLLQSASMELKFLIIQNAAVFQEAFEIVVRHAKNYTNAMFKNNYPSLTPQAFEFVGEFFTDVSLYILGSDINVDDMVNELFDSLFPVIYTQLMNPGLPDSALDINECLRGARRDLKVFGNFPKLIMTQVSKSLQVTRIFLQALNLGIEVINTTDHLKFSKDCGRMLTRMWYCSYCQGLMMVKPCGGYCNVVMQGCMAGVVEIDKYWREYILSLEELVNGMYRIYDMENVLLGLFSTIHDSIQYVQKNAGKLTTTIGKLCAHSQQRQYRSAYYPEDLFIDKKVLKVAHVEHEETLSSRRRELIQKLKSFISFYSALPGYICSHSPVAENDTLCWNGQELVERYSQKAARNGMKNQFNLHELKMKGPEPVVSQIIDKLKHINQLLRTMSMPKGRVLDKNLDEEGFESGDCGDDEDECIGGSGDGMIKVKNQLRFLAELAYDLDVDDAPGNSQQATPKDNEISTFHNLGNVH
Method: as §1
Exemplary results are depicted in FIG. 2A-2D, together with the fit curves resulting from a 1:1 binding sigmoidal fit, where the EC₅₀ value and the maximum signal were free parameters, and the slope was fixed to unity.

[6] = molecular target: T2, human GPC3 expressed on cells …; test: flow cytometry on SK-Hep1::huGPC3 cells, anti-human IgG detection
Method: (§4) For flow cytometric analysis, respective cell lines were incubated with an exemplary fusion protein (SEQ ID NOs: 87 and 82), the GPC3 antibody or the CD137 specific lipocalin mutein (Fc fusion) as included in the fusion protein (SEQ ID NOs: 81 and 82 and SEQ ID NO: 98, respectively), a reference CD137 antibody SEQ ID NOs: 26 and 27, or an isotype control (SEQ ID NOs: 24 and 25) and detected using a fluorescently labeled anti-human IgG antibody in FACS analysis as described in the following:
as §2

[7] = molecular target: T1, recombinant cynomolgus GPC3 (cyGPC3) …; test: SPR (Biacore T200), binder captured by anti-human IgG Fc, cyGPC3 as analyte, 1:1 model
Method: (§5) The anti-human IgG Fc antibody (GE Healthcare) was immobilized on a CM5 sensor chip using standard amine chemistry: the carboxyl groups on the chip were activated using 1-ethyl-3-(3-dimethylaminopropyl)-carbodiimide (EDC) and N-hydroxysuccinimide (NHS). Subsequently, anti-human IgG Fc antibody solution (GE Healthcare) at a concentration of 25 μg/mL in 10 mM sodium acetate (pH 5.0) was applied at a flow rate of 5 μL/min until an immobilization level of 6000-10000 resonance units (RU) was achieved. Residual non-reacted NHS-esters were blocked by passing a solution of 1M ethanolamine across the surface. The reference channel was treated in an analogous manner. Subsequently, testing fusion proteins (SEQ ID NOs: 87 and 82 and CD137Ac1-Fusion 1) or the GPC3 antibody as included in the fusion protein (SEQ ID NOs: 81 and 82) at 0.2 μg/ml in HBS-EP+ buffer was captured by the anti-human IgG-Fc antibody at the chip surface for 180 s at a flow rate of 10 μL/min. After each capture step, the needle was washed.
(§6) The binding assay was carried out with a contact time of 180 s, a dissociation time of 900 s, and a flow rate of 30 μL/min. After each injection, the needle was cleaned with 40 mM NaOH+20% isopropanol. All measurements were performed at 25° C. […] Prior to the protein measurements, three startup cycles were performed for conditioning purposes. Data were evaluated with Biacore T200 Evaluation software (v2.0). Double referencing was used and the 1:1 binding model was used to fit the raw data.

[8] = molecular target: T3, recombinant human GPC3 (huGPC3) (R&D …); test: SPR (Biacore T200), binder captured by anti-human IgG Fc, huGPC3 as analyte, 1:1 model
Method: as §5, §6

[9] = molecular target: T4, human CD137 expressed on cells (Flp-In-CHO::huCD137; NFkB-luc2/CD137 Jurkat cells) (human, UniProt Q07011 24-255); test: flow cytometry, CHO cells transfected with human CD137, detection labelled anti-human IgG, GeoMean RL1-H [upper graph]
T4 construct: whole, on cells; also called human CD137-expressing cells
T4 sequence (Q07011 24-255): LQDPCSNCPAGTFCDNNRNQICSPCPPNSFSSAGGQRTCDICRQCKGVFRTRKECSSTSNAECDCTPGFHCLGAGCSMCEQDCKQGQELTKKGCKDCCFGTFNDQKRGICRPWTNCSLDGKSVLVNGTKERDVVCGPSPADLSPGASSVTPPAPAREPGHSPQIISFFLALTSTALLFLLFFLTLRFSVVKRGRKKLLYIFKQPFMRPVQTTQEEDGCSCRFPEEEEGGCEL
Method: as §4, §2

[10] = molecular target: T2, human GPC3 expressed on cells …; test: flow cytometry, SK-Hep1 cells transfected with human GPC3, detection labelled anti-human IgG, GeoMean RL1-H [upper graph]
Method: as §4, §2

[11] = molecular target: T5, huCD137-His (recombinant human CD137 with C-terminal polyhistidine tag, R&D Systems) (human, UniProt Q07011 24-186); test: ELISA, huCD137-His coated, binder titrated to 100 nM, detection anti-NGAL-HRP per paragraph 342 (the antibody itself carries no lipocalin mutein) [upper graph]
T5 construct: also called biotinylated huCD137-His; not shown: C-terminal polyhistidine tag

[12] = molecular target: T4, human CD137 expressed on cells …; test: cell-based or functional assay
[13] = molecular target: T4, human CD137 expressed on cells …; test: flow cytometry on Flp-In-CHO::huCD137 cells, anti-human IgG detection
Method: as §4, §2

[14] = molecular target: T2, human GPC3 expressed on cells …; test: flow cytometry, SK-Hep1 cells transfected with human GPC3, detection labelled anti-human IgG, GeoMean BL1-H [lower graph]
Method: as §4, §2

EC50 [1]: 0.23 nM | EC50 [2]: 16.7 nM | EC50 [3]: 6.35 nM | EC50 [4]: 1.46 nM | EC50 [5]: 0.13 nM | EC50 [6]: 19.9 nM | Kd [7]: 0.737 nM | koff [7]: 0.000151 s⁻¹ | kon [7]: 205000 M⁻¹ s⁻¹ | Kd [8]: 0.686 nM | koff [8]: 0.000248 s⁻¹ | kon [8]: 361000 M⁻¹ s⁻¹ | binding result [9]: no binding (tested: 100 nM) | EC50 (read off the curve) [10]: ~5 nM | binding result [11]: no binding (tested: 100 nM)
B1: GPC3 antibody as included in the fusion protein (SEQ ID NOs: 81 and 82) (antibody, human IgG4 S228P, kappa, F234A L235A, V domains shown)
VH: QVQLVQSGAEVKKPGASVKVSCKASGYTFTDYEMHWVRQAPGQGLEWMGALDPKTGDTAYSQKFKGRVTLTADKSTSTAYMELSSLTSEDTAVYYCTRFYSYTYWGQGTLVTLVS
VL: DVVMTQSPLSLPVTPGEPASISCRSSQSLVHSNRNTYLHWYLQKPGQSPQLLIYKVSNRFSGVPDRFSGSGSGTDFTLKISRVEAEDVGVYYCSQNTHVPPTFGQGTKLEIKR
notes: also called GPC3 specific antibody

EC50, CD137 Bioassay (NFkB-luc2/CD137 Jurkat cells co-cultured with Hep3B) [12]: 1.39 nM | EC50, CD137 Bioassay (NFkB-luc2/CD137 Jurkat cells co-cultured with HepG2) [12]: 0.94 nM | EC50, CD137 Bioassay (NFkB-luc2/CD137 Jurkat cells co-cultured with MKN-45) [12]: 1.47 nM | EC50, CD137 Bioassay (NFkB-luc2/CD137 Jurkat cells co-cultured with NCI-N87) [12]: 1.67 nM | EC50 [13]: 9.61 nM | binding result [14]: no binding (tested: 500 nM)
B2: reference CD137 antibody (SEQ ID NOs: 26 and 27) (antibody, human IgG4 S228P, kappa, V domains shown)
VH: QVQLQQWGAGLLKPSETLSLTCAVYGGSFSGYYWSWIRQSPEKGLEWIGEINHGGYVTYNPSLESRVTISVDTSKNQFSLKLSSVTAADTAVYYCARDYGPGNYDWYFDLWGRGTLVTVSS
VL: EIVLTQSPATLSLSPGERATLSCRASQSVSSYLAWYQQKPGQAPRLLIYDASNRATGIPARFSGSGSGTDFTLTISSLEPEDFAVYYCQQRSNWPPALTFGGGTKVEIKR
